From publication PMC10397247
Blank lines part the entries; values can stand above or below the binder they belong to.

Tests used:
4H570-bA = molecular target: T1, 4H570-bA; test: two-hybrid library CCNG1;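 also: natural log of median RNA to DNA barcode read ratio; higher means stronger binding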
T1 chain: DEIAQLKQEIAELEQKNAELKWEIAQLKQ

4H1710-bA = molecular target: T2, 4H1710-bA; test: two-hybrid library CCNG1;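 also: natural log of median RNA to DNA barcode read ratio; higher means stronger binding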
T2 chain: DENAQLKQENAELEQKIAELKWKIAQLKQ

4H1899-bA = molecular target: T3, 4H1899-bA; test: two-hybrid library CCNG1;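 also: natural log of median RNA to DNA barcode read ratio; higher means stronger binding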
T3 chain: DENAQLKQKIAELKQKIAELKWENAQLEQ

4H1348-bA = molecular target: T4, 4H1348-bA; test: two-hybrid library CCNG1;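 also: natural log of median RNA to DNA barcode read ratio; higher means stronger binding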
T4 chain: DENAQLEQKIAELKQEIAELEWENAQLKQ

4H3462-bA = molecular target: T5, 4H3462-bA; test: two-hybrid library CCNG1;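 also: natural log of median RNA to DNA barcode read ratio; higher means stronger binding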
T5 chain: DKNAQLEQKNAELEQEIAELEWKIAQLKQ

4H3638-bA = molecular target: T6, 4H3638-bA; test: two-hybrid library CCNG1;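 also: natural log of median RNA to DNA barcode read ratio; higher means stronger binding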
T6 chain: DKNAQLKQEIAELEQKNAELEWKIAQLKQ

4H3817-bA = molecular target: T7, 4H3817-bA; test: two-hybrid library CCNG1
T7 chain: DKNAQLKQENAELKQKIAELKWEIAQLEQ

4H3926-bA = molecular target: T8, 4H3926-bA; test: two-hybrid library CCNG1
T8 chain: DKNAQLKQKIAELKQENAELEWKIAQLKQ

4H3162-bA = molecular target: T9, 4H3162-bA; test: two-hybrid library CCNG1
T9 chain: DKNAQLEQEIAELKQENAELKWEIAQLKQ

4H1985-bA = molecular target: T10, 4H1985-bA; test: two-hybrid library CCNG1
T10 chain: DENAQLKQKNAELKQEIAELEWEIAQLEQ

4H626-bA = molecular target: T11, 4H626-bA; test: two-hybrid library CCNG1
T11 chain: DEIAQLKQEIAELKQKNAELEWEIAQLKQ

4H3175-bA = molecular target: T12, 4H3175-bA; test: two-hybrid library CCNG1
T12 chain: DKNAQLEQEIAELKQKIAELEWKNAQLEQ

4H3613-bA = molecular target: T13, 4H3613-bA; test: two-hybrid library CCNG1
T13 chain: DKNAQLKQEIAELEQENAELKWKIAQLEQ

4H3628-bA = molecular target: T14, 4H3628-bA; test: two-hybrid library CCNG1
T14 chain: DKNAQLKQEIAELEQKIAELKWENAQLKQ

4H850-bA = molecular target: T15, 4H850-bA; test: two-hybrid library CCNG1
T15 chain: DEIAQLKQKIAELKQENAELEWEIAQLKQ

4H338-bH = molecular target: T16, 4H338-bH; test: two-hybrid library CCNG1
T16 chain: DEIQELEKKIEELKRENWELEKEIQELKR

4H1449-bA = molecular target: T17, 4H1449-bA; test: two-hybrid library CCNG1
T17 chain: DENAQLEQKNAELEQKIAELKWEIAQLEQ

4H3858-bA = molecular target: T18, 4H3858-bA; test: two-hybrid library CCNG1
T18 chain: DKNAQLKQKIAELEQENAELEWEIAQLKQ

4H3497-bA = molecular target: T19, 4H3497-bA; test: two-hybrid library CCNG1
T19 chain: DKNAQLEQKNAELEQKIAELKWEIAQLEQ

4H3298-bA = molecular target: T20, 4H3298-bA; test: two-hybrid library CCNG1
T20 chain: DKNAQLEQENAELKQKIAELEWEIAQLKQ

4H906-bA = molecular target: T21, 4H906-bA; test: two-hybrid library CCNG1
T21 chain: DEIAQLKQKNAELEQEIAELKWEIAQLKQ

4H1544-bA = molecular target: T22, 4H1544-bA; test: two-hybrid library CCNG1
T22 chain: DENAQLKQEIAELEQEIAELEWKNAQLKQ

4H3974-bA = molecular target: T23, 4H3974-bA; test: two-hybrid library CCNG1
T23 chain: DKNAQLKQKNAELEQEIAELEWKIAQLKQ

4H1373-bA = molecular target: T24, 4H1373-bA; test: two-hybrid library CCNG1
T24 chain: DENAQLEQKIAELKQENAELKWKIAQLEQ

4H591-bA = molecular target: T25, 4H591-bA; test: two-hybrid library CCNG1
T25 chain: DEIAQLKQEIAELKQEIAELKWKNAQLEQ

4H3277-bA = molecular target: T26, 4H3277-bA; test: two-hybrid library CCNG1
T26 chain: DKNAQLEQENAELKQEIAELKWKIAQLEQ

O6-AA = molecular target: T27, O6-AA; test: two-hybrid library CCmax; conditions: mean of both orientations
T27 chain: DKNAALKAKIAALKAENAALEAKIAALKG

P9-AA = molecular target: T28, P9-AA; test: two-hybrid library CCmax; conditions: mean of both orientations
T28 chain: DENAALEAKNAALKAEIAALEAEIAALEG

O13-AA = molecular target: T29, O13-AA; test: two-hybrid library CCmax; conditions: mean of both orientations
T29 chain: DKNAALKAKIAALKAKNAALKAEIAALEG

O3-AA = molecular target: T30, O3-AA; test: two-hybrid library CCmax; conditions: mean of both orientations
T30 chain: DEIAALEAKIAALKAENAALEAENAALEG

O7-AA = molecular target: T31, O7-AA; test: two-hybrid library CCmax; conditions: mean of both orientations
T31 chain: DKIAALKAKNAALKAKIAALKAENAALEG

O14-AA = molecular target: T32, O14-AA; test: two-hybrid library CCmax; conditions: mean of both orientations
T32 chain: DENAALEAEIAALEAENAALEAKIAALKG

O11-AA = molecular target: T33, O11-AA; test: two-hybrid library CCmax
T33 chain: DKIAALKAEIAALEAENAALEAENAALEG

O4-AA = molecular target: T34, O4-AA; test: two-hybrid library CCmax; conditions: mean of both orientations
T34 chain: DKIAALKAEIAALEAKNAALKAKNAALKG

O1-AA = molecular target: T35, O1-AA; test: two-hybrid library CCmax
T35 chain: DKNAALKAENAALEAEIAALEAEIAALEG

P10-AA = molecular target: T36, P10-AA; test: two-hybrid library CCmax; conditions: mean of both orientations
T36 chain: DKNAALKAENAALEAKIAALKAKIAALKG

O2-AA = molecular target: T37, O2-AA; test: two-hybrid library CCmax; conditions: mean of both orientations
T37 chain: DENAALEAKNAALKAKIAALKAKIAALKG

O8-AA = molecular target: T38, O8-AA; test: two-hybrid library CCmax; conditions: mean of both orientations
T38 chain: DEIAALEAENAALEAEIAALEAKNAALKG

O5-AA = molecular target: T39, O5-AA; test: two-hybrid library CCmax
T39 chain: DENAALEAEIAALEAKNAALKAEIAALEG

interaction score (4H570-bA): -0.301
interaction score (4H1710-bA): 0.798
interaction score (4H1899-bA): 1.63
interaction score (4H1348-bA): 0.78
interaction score (4H3462-bA): 0.657
interaction score (4H3638-bA): -0.0281
interaction score (4H3817-bA): -0.318
interaction score (4H3926-bA): -0.392
interaction score (4H3162-bA): -0.332
interaction score (4H1985-bA): -0.366
interaction score (4H626-bA): -0.434
interaction score (4H3175-bA): 0.0318
interaction score (4H3613-bA): -1.05
interaction score (4H3628-bA): 1.84
interaction score (4H850-bA): -0.292
interaction score (4H338-bH): 1.22
interaction score (4H1449-bA): -0.151
interaction score (4H3858-bA): -0.895
interaction score (4H3497-bA): -0.616
interaction score (4H3298-bA): -0.624
interaction score (4H906-bA): -0.721
interaction score (4H1544-bA): -0.0997
interaction score (4H3974-bA): 0.469
interaction score (4H1373-bA): -0.7
interaction score (4H591-bA): -1.02
interaction score (4H3277-bA): -0.24
Binder: DENAQLEQKIAELKQEIAELEWENAQLKQ [4H1348-bA]

interaction score (O6-AA): -1.79
interaction score (P9-AA): -0.278
interaction score (O13-AA): 0.0154
interaction score (O3-AA): -1.57
interaction score (O7-AA): -0.639
interaction score (O14-AA): -1.66
interaction score (O11-AA): -1.61
interaction score (O4-AA): -1.07
interaction score (O1-AA): -2.06
interaction score (P10-AA): 1.05
interaction score (O2-AA): 2.13
interaction score (O8-AA): -1.41
interaction score (O5-AA): -1.72
Binder: DKNAALKAENAALEAEIAALEAEIAALEG [O1-AA]
